In patent US20260139049A1 (PEDIATRIC IMMUNITY AND HEALTHCARE GUANGZHOU BIOTECHNOLOGY, published 2026):
Residue numbers refer to the chain shown, from its start. Values belong to the binder of their own block, whether it stands above or below them.

What was measured:
human CLDN6 [1] = target: T1, human CLDN6 (human, UniProt P56747 1-220); assay: FACS on HEK293T-CLDN6 cells
T1 construct: whole, on cells; four-transmembrane protein; also called claudin-6; HEK293T-CLDN6
T1 sequence (looked up): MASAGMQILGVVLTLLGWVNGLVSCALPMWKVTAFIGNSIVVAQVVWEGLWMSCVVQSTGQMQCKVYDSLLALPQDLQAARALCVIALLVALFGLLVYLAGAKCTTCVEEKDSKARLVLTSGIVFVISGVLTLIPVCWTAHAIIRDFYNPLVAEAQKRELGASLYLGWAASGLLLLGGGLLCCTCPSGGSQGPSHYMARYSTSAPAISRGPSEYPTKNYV
Protocol: (§1) To detect a binding capacity of a chimeric or humanized antibody to CLDN6, a CLDN6-expressing cell line HEK293T-CLDN6 and a CLDN6-negative control cell line HEK293T were washed three times with PBS. 1×10⁵ test cells and 50 μL of an antibody solution to be tested were added to a 96-well plate, and incubated at 4° C. for 1 h. The cells were then washed three times with PBS. […] Finally, cells were washed three times with PBS, and signals were read using FACS.
(§2) An EC50 value (a concentration of an antibody that binds to half of binding sites at equilibrium) is calculated through nonlinear regression.

human CLDN6 [2] = target: T1, human CLDN6; assay: FACS on PA-1 tumour cells; target on the cells taken as CLDN6
Protocol: (§3) 50 μL of an antibody to be tested was added to a 96-well plate, then 1×10⁵ cells were added to each well, and incubation was conducted at 4° C. for 1 h. Cells were washed three times with PBS. […] Finally, cells were washed three times with PBS, and signals were read using FACS. A binding capacity of the antibody to each tumor cell was analyzed based on detection data.

human CLDN6 [3] = target: T1, human CLDN6; assay: cell-based or functional assay
human CLDN6 [4] = target: T1, human CLDN6; assay: cell-based or functional assay; remark: listed apart in the source
human CLDN6 [5] = target: T1, human CLDN6; assay: FACS on HEK293T-CLDN6 cells; remark: listed apart in the source
Protocol: as §1, §2

human CLDN6 [6] = target: T1, human CLDN6; assay: FACS on HEK293T-CLDN6 cells; remark: listed apart in the source
Protocol: as §1, §2

[7] = target: T2, monkey CLDN6 (Cyno CLDN6) (monkey (Cyno)); assay: FACS on CHO-K1-Cyno CLDN6 cells
T2 construct: whole, on cells; also called CHO-K1-Cyno CLDN6

mouse CLDN6 = target: T3, mouse CLDN6 (mouse, UniProt Q9Z262 1-219); assay: FACS on CHO-K1-Mouse CLDN6 cells
T3 construct: whole, on cells; also called CHO-K1-Mouse CLDN6
T3 sequence (looked up): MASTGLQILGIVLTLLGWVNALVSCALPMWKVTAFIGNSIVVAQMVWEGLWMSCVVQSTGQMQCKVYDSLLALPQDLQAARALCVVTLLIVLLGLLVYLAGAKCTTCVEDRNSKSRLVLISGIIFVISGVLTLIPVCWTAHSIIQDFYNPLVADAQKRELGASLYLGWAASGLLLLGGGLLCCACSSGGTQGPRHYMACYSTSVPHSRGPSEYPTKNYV

human CLDN3 = target: T4, human CLDN3 (human, UniProt O15551 1-220); assay: FACS on 293T-CLDN3 cells, 10 µg/mL
T4 construct: whole, on cells; also called HEK293T-CLDN3
T4 sequence (looked up): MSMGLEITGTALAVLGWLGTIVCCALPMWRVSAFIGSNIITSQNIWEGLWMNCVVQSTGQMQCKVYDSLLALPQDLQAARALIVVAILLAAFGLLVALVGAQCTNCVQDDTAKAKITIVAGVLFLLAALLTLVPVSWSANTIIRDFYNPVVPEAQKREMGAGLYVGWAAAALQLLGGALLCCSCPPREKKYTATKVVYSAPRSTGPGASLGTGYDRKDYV
Protocol: as §3, with “1× 10⁵” for “1×10⁵”, “Binding capacities” for “A binding capacity”, “CLDN9, CLDN3, and CLDN4 were” for “each tumor cell was”, “analyzed separately” for “analyzed”

human CLDN4 = target: T5, human CLDN4 (human, UniProt O14493 1-209); assay: FACS on 293T-CLDN4 cells, 10 µg/mL
T5 construct: whole, on cells; also called HEK293T-CLDN4
T5 sequence (looked up): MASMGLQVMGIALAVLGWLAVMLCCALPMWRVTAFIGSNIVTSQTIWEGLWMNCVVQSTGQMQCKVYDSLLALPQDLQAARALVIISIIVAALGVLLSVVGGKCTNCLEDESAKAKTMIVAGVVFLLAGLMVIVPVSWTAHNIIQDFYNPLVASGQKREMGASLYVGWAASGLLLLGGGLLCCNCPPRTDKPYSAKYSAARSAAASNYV
Protocol: as §3, with “1× 10⁵” for “1×10⁵”, “Binding capacities” for “A binding capacity”, “CLDN9, CLDN3, and CLDN4 were” for “each tumor cell was”, “analyzed separately” for “analyzed”

human CLDN6 [8] = target: T1, human CLDN6; assay: FACS on 293T-CLDN6 cells, 10 µg/mL
human CLDN9 = target: T6, human CLDN9 (human, UniProt O95484 1-217); assay: FACS on 293T-CLDN9 cells, 10 µg/mL
T6 construct: whole, on cells; also called HEK293T-CLDN9
T6 sequence (looked up): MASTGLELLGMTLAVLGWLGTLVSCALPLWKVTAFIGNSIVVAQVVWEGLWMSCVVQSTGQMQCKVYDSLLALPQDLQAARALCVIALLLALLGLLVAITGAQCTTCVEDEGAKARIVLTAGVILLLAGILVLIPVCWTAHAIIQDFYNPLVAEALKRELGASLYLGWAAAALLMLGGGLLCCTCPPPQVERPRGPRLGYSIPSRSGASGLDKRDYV
Protocol: as §3, with “1× 10⁵” for “1×10⁵”, “Binding capacities” for “A binding capacity”, “CLDN9, CLDN3, and CLDN4 were” for “each tumor cell was”, “analyzed separately” for “analyzed”

human CLDN6 [9] = target: T1, human CLDN6; assay: ratio of FACS signals on CLDN6 cells over CLDN9 cells
Protocol: as §3, with “1× 10⁵” for “1×10⁵”, “Binding capacities” for “A binding capacity”, “CLDN9, CLDN3, and CLDN4 were” for “each tumor cell was”, “analyzed separately” for “analyzed”

human CLDN6 [10] = target: T1, human CLDN6; assay: FACS on PA-1 tumour cells; target on the cells taken as CLDN6; remark: listed apart in the source
Protocol: (§4) The specific binding of a chimeric antibody to a tumor cell was detected by FACS, and an EC50 value was calculated accordingly to evaluate an inhibitory effect of the chimeric antibody on the tumor cell.
as §3

human CLDN6 [11] = target: T1, human CLDN6; assay: as above; remark: listed apart in the source
Protocol: as §3

human CLDN6 [12] = target: T1, human CLDN6; assay: FACS on HepG2 tumour cells; target on the cells taken as CLDN6
Protocol: as §4, §3

human CLDN6 [13] = target: T1, human CLDN6; assay: as above; remark: listed apart in the source
Protocol: as §3

human CLDN6 [14] = target: T1, human CLDN6; assay: ratio of FACS Geom.Mean on 293T-CLDN6 over 293T-CLDN9, 10 µg/mL
Protocol: as §3, with “1× 10⁵” for “1×10⁵”, “Binding capacities” for “A binding capacity”, “CLDN9, CLDN3, and CLDN4 were” for “each tumor cell was”, “analyzed separately” for “analyzed”

human CLDN6 [15] = target: T1, human CLDN6; assay: binding to CLDN6-expressing cells; method not given

B1: PiH2007 (antibody, human IgG1, kappa, V domains shown)
VH: QVQLVQSGAEVKKPGASVKVSCKASGYTFTDYNMHWVRQAPGQSLEWIGYINPNNGATNYNQKFKGRATITVDTSASTAYMELSSLRSEDTAVYNCARWDGYVYYYGMDYWGQGTLVTVSS
VL: DIQMTQSPSSLSASVGGRVTITCKASDHINNWLAWYQQKPGKAPKLLISGATSLETGVPSRFSGSGSGTDYTFTISSLQPEDIATYYCQQYWNTPYTFGGGTKLEIKR
notes: humanized from 54B5A7; IgG1; also called 54-VH3 + VL4
- EC50 (human CLDN6 [1]): 0.897 µg/mL
- EC50 (human CLDN6 [2]): 1.17 µg/mL

B2: 51C10H4 (antibody, human IgG1, kappa, V domains shown)
VH: EVQLQQSGPELVKPGASVKMSCKASGYTFTDYNMHWVKKSHGKSLEWIGYVNPNNGATSYNQKFKGKATLTVNKSSSTAYMELRSLTSEDSAVYNCARWDGYVYYYGLDYWGQGTSVTVSS
VL: DIQMTQSSSYLSVSLGGRVTITCKASDHINNWLAWYQQKPGNAPRLLISGATSLETGVPSRFSGSGSGKDYTLSITSLQTEDVATYYCQQYWSTPYTFGGGTKLEIKR
notes: chimeric IgG1
- ADCC dose-response fit: EC50 (human CLDN6 [3]): 0.0483 µg/mL
- ADCC dose-response fit: LogEC50 (human CLDN6 [3]): -1.32
- CDC dose-response fit: EC50 (human CLDN6 [4]): 0.178 µg/mL
- CDC dose-response fit: LogEC50 (human CLDN6 [4]): -0.75
- EC50 (human CLDN6 [5]): 0.354 µg/mL
- EC50 (human CLDN6 [6]): 0.235 µg/mL
- EC50 [7]: 0.722 µg/mL
- EC50 (mouse CLDN6): 0.935 µg/mL
- Geom.Mean (human CLDN3): 103
- Geom.Mean (human CLDN4): 210
- Geom.Mean (human CLDN6 [8]): 44900
- Geom.Mean (human CLDN9): 248
- CLDN6/CLDN9 signal ratio (human CLDN6 [9]): ~200 fold
- EC50 (human CLDN6 [10]): 0.538 µg/mL
- EC50 (human CLDN6 [11]): 0.34 µg/mL
- EC50 (human CLDN6 [12]): 0.294 µg/mL
- EC50 (human CLDN6 [13]): 0.49 µg/mL
- CLDN6/CLDN9 ratio (human CLDN6 [14]): 181

B3: 47D5D6 (antibody, human IgG1, kappa, V domains shown)
VH: EVQLVESGGDLVKPGGSLKLSCAASGFTFSSYGMSWVRQTPDKRLEWVATISSGGSYTYYPDSVKGRFTISRDNAKNTLYLQMSSLKSEDTAMYYCARPHYVSSYAMDYWGQGTSVTVSS
VL: B2 VL with Y10S, L11F, G17D, D27E, H28D, N30Y, W32R, Y96P
notes: chimeric: murine variable regions on human IgG1 constant regions
- EC50 (human CLDN6 [5]): 1.04 µg/mL
- EC50 [7]: 1.94 µg/mL
- EC50 (mouse CLDN6): 2.09 µg/mL
- Geom.Mean (human CLDN3): 151
- Geom.Mean (human CLDN4): 5620
- Geom.Mean (human CLDN6 [8]): 33000
- Geom.Mean (human CLDN9): 428
- CLDN6/CLDN9 signal ratio (human CLDN6 [9]): ~50 fold
- CLDN6/CLDN9 ratio (human CLDN6 [14]): 77

B4: 51C10-M3 (antibody, human IgG1, kappa, V domains shown)
VH: B2 VH with G101A
VL: B2 VL
notes: 51C10H4 with G of DG in heavy-chain CDR3 changed to A; also called improved antibody 51C10-M3
- binding result (human CLDN6 [15]): binds

Next, values leading:

- binding result (human CLDN6 [15]): binds
B5: 51C10-M2 (antibody, human IgG1, kappa, V domains shown)
VH: B2 VH with N55Q
VL: B2 VL
notes: 51C10H4 with N of NG in heavy-chain CDR2 changed to Q; also called improved antibody 51C10-M2

- binding result (human CLDN6 [15]): binds
B6: 51C10-M4 (antibody, human IgG1, kappa, V domains shown)
VH: B2 VH with D100E
VL: B2 VL
notes: 51C10H4 with D of DG in heavy-chain CDR3 changed to E; also called improved antibody 51C10-M4
